Values belong to the binder of their own block, whether it stands above or below them.
Assays:
[1] = molecular target: T1, human P Glycoprotein (Pgp) / Multidrug resistance protein 1 (MDR1), gene ABCB1, on cells (human, UniProt P08183 1-1280); assay: cell-based or functional assay
[2] = molecular target: T1, human P Glycoprotein (Pgp) / Multidrug …; assay: flow cytometry on 293T cells stably expressing human ABCB1 (293T_ABCB1_OX; the cells also carry CD47); 293T_ABCB1_OX cells: Pgp overexpressed, CD47 also present
[3] = molecular target: T2, human CD47-Fc fusion protein (R&D systems) (human, UniProt Q08722 19-141); assay: ELISA, plate coated with human CD47-Fc; parameters: Bmax: unit not given here
T2 construct: Bought (R&D systems); also called Fc-tagged CD47; not shown: Fc part of the bought fusion protein

[4] = molecular target: T1, human P Glycoprotein (Pgp) / Multidrug …; assay: flow cytometry on 293T cells stably expressing human ABCB1 (293T_ABCB1_OX; the cells also carry CD47)
[5] = molecular target: T2, human CD47-Fc fusion protein (R&D …); assay: ELISA, Fc-tagged CD47 coated on the plate
[6] = molecular target: T3, cynomolgus CD47 on erythrocytes (cynomolgus, UniProt A0A5F8AK49 19-323 (rhesus entry)); assay: flow cytometry on cynomolgus red blood cells (cy807 RBC), Alexa Fluor 647 channel
T3 construct: whole, on cells; also called cynomolgus RBCs

human CD47 on cells = molecular target: T4, human CD47 on cells (human, UniProt Q08722 19-323); assay: flow cytometry on human red blood cells (h408 RBC), Alexa Fluor 647 channel
T4 construct: also called KT14 (target name); leukocyte surface antigen CD47

[7] = molecular target: T1, human P Glycoprotein (Pgp) / Multidrug …; assay: FACS on 293T-B1OX cells (overexpressing MDR1)
[8] = molecular target: T5, EGFR on 293T cells overexpressing EGFR (UniProt P00533 25-1210, limits assumed); assay: FACS on 293T-EGFR OX cells
T5 construct: whole, on cells

[9] = molecular target: T2, human CD47-Fc fusion protein (R&D …); assay: ELISA, binding to CD47; parameters: Bmax: unit not given here
[10] = molecular target: T2, human CD47-Fc fusion protein (R&D …); assay: ELISA, binding to CD47
[11] = molecular target: T2, human CD47-Fc fusion protein (R&D …); assay: ELISA, plate coated with human CD47-Fc
[12] = molecular target: T1, human P Glycoprotein (Pgp) / Multidrug …; assay: FACS on 293T cells overexpressing MDR1 (column MDR1 FACS)

B1: Ab1 (15D3 IgG1 DD / KT14 IgG1 KK / MRK16 VL-Hz1) (bispecific antibody, V domains shown)
VH 1: EVKVVESGGVLVRPGGSLKLSCAASGFTFSRYTMSWVRQTPEKRLEWVATISSGGGNTYYPDSVKGRFTVSRDNAMSSLYLQMSSLRSEDTALYYCARYGAGDAWFAYWGQGTLVTVSA
VH 2: QVQLVQSGAEVKKPGASVKVSCKASGYTFTNYNMHWVRQAPGQRLEWMGTIYPGNDDTSYNQKFKDRVTITADTSASTAYMELSSLRSEDTAVYYCARGGYRAMDYWGQGTLVTVSS
VL: DIVMTQTPLSSPVTLGQPASISCRSSQSIVHSTGQTYLEWYQQRPGQPPRLLIYKISNRFSGVPDRFSGSGAGTDFTLKISRVEAEDVGVYYCFQASHFPRTFGQGTKLEIK
notes: Human IgG1 heavy chains with DD (K392D, K409D) on the 15D3 arm and KK (E356K, D399K) on the KT14 (5F9) arm; kappa light chain
Vincristine IC50 (nM) on N6/ADR cells with antibody at 50 ug/mL [1]: 0.002 nM
EC50 [2]: 75.5 nM

B2: 5F9/15D3 (5F9 heavy chain with 15D3 light chain) (antibody, human IgG1, V domains shown)
VH: QVQLVQSGAEVKKPGASVKVSCKASGYTFTNYNMHWVRQAPGQRLEWMGTIYPGNDDTSYNQKFKDRVTITADTSASTAYMELSSLRSEDTAVYYCARGGYRAMDYWGQGTLVTVSS
VL: DVLMTQTPLSLPVSLGDQASISCRSSQSIVHSTGNTYLEWYLQKPGQSPKLLIYKVSNRFSGVPDRFSGSGSGTDFTLKISRLEAEDLGVYYCFQGSHFPRTFGGGTRLEIK
notes: Light chain shuffle construct; human IgG1 / kappa constant regions
Bmax [3]: 2.96
Kd [3]: 0.257 nM

B3: 5F9/UIC2 (5F9 heavy chain with UIC2 light chain) (antibody, human IgG1, V domains shown)
VH: QVQLVQSGAEVKKPGASVKVSCKASGYTFTNYNMHWVRQAPGQRLEWMGTIYPGNDDTSYNQKFKDRVTITADTSASTAYMELSSLRSEDTAVYYCARGGYRAMDYWGQGTLVTVSS
VL: DVVMTQTPRSLPVSLGDQASISCRSSQSLLHSNGNTYLHWYLQKPGQSPKLLIYKVSNRFSGVPDRFSGSGSGTDFTLKISRVEAEDLGVYFCSQSTHIPPWTFGGGTKLDIK
notes: as for B2
Bmax [3]: 3.08
Kd [3]: 6.3 nM

B5: KBisP1.1 bispecific antibody (15D3 IgG1 DD/5F9 IgG1 KK/MRK16) (bispecific antibody, V domains shown)
VH 1: EVKVVESGGVLVRPGGSLKLSCAASGFTFSRYTMSWVRQTPEKRLEWVATISSGGGNTYYPDSVKGRFTVSRDNAMSSLYLQMSSLRSEDTALYYCARYGAGDAWFAYWGQGTLVTVSA
VH 2: QVQLVQSGAEVKKPGASVKVSCKASGYTFTNYNMHWVRQAPGQRLEWMGTIYPGNDDTSYNQKFKDRVTITADTSASTAYMELSSLRSEDTAVYYCARGGYRAMDYWGQGTLVTVSS
VL: DVLMTQTPVSLSVSLGDQASISCRSSQSIVHSTGNTYLEWYLQKPGQSPKLLIYKISNRFSGVPDRFSGSGSGTDFTLKISRVEAEDLGVYYCFQASHFPRTFGGGTKLEIK
notes: 15D3 VH on human IgG1 with K392D and K409D (DD), 5F9 VH on human IgG1 with E356K and D399K (KK), EU numbering; also called KNJYBisP1.1; KBis1.1
Kd [5]: 145 nM
Vincristine IC50 (nM) on N6/ADR cells with antibody at 50 ug/mL [1]: 0.0461 nM
R4 (percent of red blood cells in the positive gate R4) [6]: 0.483%
binding result [6]: no binding
EC50 [2]: 40.3 nM
R4 (percent of red blood cells in the positive gate R4) (human CD47 on cells): 0.609%

B9: 15D3/UIC2 (15D3 heavy chain with UIC2 light chain) (antibody, human IgG1, V domains shown)
VH: EVKVVESGGVLVRPGGSLKLSCAASGFTFSRYTMSWVRQTPEKRLEWVATISSGGGNTYYPDSVKGRFTVSRDNAMSSLYLQMSSLRSEDTALYYCARYGAGDAWFAYWGQGTLVTVSA
VL: DVVMTQTPRSLPVSLGDQASISCRSSQSLLHSNGNTYLHWYLQKPGQSPKLLIYKVSNRFSGVPDRFSGSGSGTDFTLKISRVEAEDLGVYFCSQSTHIPPWTFGGGTKLDIK
notes: as for B2
Bmax [9]: 3.45
Kd [9]: 169 nM

B12: 15D3 IgG1 KK/5F9 IgG1 DD/UIC2 (bispecific antibody)
chain 1: not shown
chain 2: not shown
chain 3: DVVMTQTPRSLPVSLGDQASISCRSSQSLLHSNGNTYLHWYLQKPGQSPKLLIYKVSNRFSGVPDRFSGSGSGTDFTLKISRVEAEDLGVYFCSQSTHIPPWTFGGGTKLDIKRTVAAPSVFIFPPSDEQLKSGTASVVCLLNNFYPREAKVQWKVDNALQSGNSQESVTEQDSKDSTYSLSSTLTLSKADYEKHKVYACEVTHQGLSSPVTKSFNRGEC
Kd [5]: 1620 nM

B13: anti-MDR1 antibody MRK16 (recombinant, human IgG1/Kappa) (antibody, V domains shown)
VH: EVILVESGGGLVKPGGSLKLSCAASGFTFSSYTMSWVRQTPEKRLEWVATISSGGGNTYYPDSVKGRFTISRDNAKNNLYLQMSSLRSEDTALYYCARYYRYEAWFASWGQGTLVTVSA
VL: DVLMTQTPVSLSVSLGDQASISCRSSQSIVHSTGNTYLEWYLQKPGQSPKLLIYKISNRFSGVPDRFSGSGSGTDFTLKISRVEAEDLGVYYCFQASHFPRTFGGGTKLEIK
EC50 [7]: 58.8 nM
Vincristine IC50 (nM) on N6/ADR cells with antibody at 50 ug/mL [1]: 0.734 nM
R4 (percent of red blood cells in the positive gate R4) [6]: 0.801%
binding result [6]: no binding
R4 (percent of red blood cells in the positive gate R4) (human CD47 on cells): 0.867%
binding result (human CD47 on cells): no binding

Second part, the binder after the results:

EC50 [4]: 137 nM
Vincristine IC50 (nM) on N6/ADR cells with antibody at 50 ug/mL [1]: 0.0589 nM
B4: Ab5 (15D3 HC-Hz1 DD hIgG1 / KT14 IgG1 KK / MRK16 VL-Hz1) (bispecific antibody, V domains shown)
VH 1: EVQLVESGGVVVQPGGSLRLSCAASGFTFSRYTMSWVRQAPGKGLEWVATISSGGGQTYYPDSVKGRFTVSRDNSKNSLYLQMNSLRTEDTALYYCARYGAGDAWFAYWGQGTLVTVSS
VH 2: QVQLVQSGAEVKKPGASVKVSCKASGYTFTNYNMHWVRQAPGQRLEWMGTIYPGNDDTSYNQKFKDRVTITADTSASTAYMELSSLRSEDTAVYYCARGGYRAMDYWGQGTLVTVSS
VL: DIVMTQTPLSSPVTLGQPASISCRSSQSIVHSTGQTYLEWYQQRPGQPPRLLIYKISNRFSGVPDRFSGSGAGTDFTLKISRVEAEDVGVYYCFQASHFPRTFGQGTKLEIK
notes: Human IgG1 heavy chains with DD on the 15D3 arm and KK on the KT14 (5F9) arm; kappa light chain

EC50 [7]: 33.1 nM
EC50 [8]: 110 nM
B6: 15D3 DD HC::necitumumab KK HC::MRK16 LC (bispecific antibody, IgG1, V domains shown)
VH 1: EVKVVESGGVLVRPGGSLKLSCAASGFTFSRYTMSWVRQTPEKRLEWVATISSGGGNTYYPDSVKGRFTVSRDNAMSSLYLQMSSLRSEDTALYYCARYGAGDAWFAYWGQGTLVTVSA
VH 2: QVQLQESGPGLVKPSQTLSLICTVSGGSISSGDYYWSWIRQPPGKGLEWIGYIYYSGSTDYNPSLKSRVTMSVDTSKNQFSLKVNSVTAADTAVYYCARVSIFGVGTFDYWGQGTLVTVSS
VL: DVLMTQTPVSLSVSLGDQASISCRSSQSIVHSTGNTYLEWYLQKPGQSPKLLIYKISNRFSGVPDRFSGSGSGTDFTLKISRVEAEDLGVYYCFQASHFPRTFGGGTKLEIK
notes: DD = K392D and K409D, KK = E356K and D399K (EU) in the IgG1 heavy chains; common light chain; also called 15D3DD: necitumumab KK:MRK16; KT3-2KK 15D3DD 1MRK16

Bmax [3]: 4.22
Kd [3]: 1510 nM
B7: 5F9/M89 (5F9 heavy chain with M89 light chain) (antibody, human IgG1, V domains shown)
VH: QVQLVQSGAEVKKPGASVKVSCKASGYTFTNYNMHWVRQAPGQRLEWMGTIYPGNDDTSYNQKFKDRVTITADTSASTAYMELSSLRSEDTAVYYCARGGYRAMDYWGQGTLVTVSS
VL: EIVLTQSPATLSLSPGERATLSCRASQSVGGSYLAWYQQKPGQAPRLLIYGASRRATGIPARFSGSGSGTDFTLTISSLQPEDFASYFCQQTNTFPLTFGGGTKVEIK
notes: as for B2

Bmax [9]: 3.1
Kd [9]: 252 nM
B8: 15D3/5F9 (15D3 heavy chain with 5F9 light chain) (antibody, human IgG1, V domains shown)
VH: EVKVVESGGVLVRPGGSLKLSCAASGFTFSRYTMSWVRQTPEKRLEWVATISSGGGNTYYPDSVKGRFTVSRDNAMSSLYLQMSSLRSEDTALYYCARYGAGDAWFAYWGQGTLVTVSA
VL: DIVMTQSPLSLPVTPGEPASISCRSSQSIVYSNGNTYLGWYLQKPGQSPQLLIYKVSNRFSGVPDRFSGSGSGTDFTLKISRVEADVGVYYCFQGSHVPYTFGQGTKLEIK
notes: as for B2

Bmax [9]: 3.94
Kd [9]: 229 nM
fold decrease in affinity against the un-swapped 15D3 control [10]: ~20 fold
B10: 15D3/MRK16 (anti-MDR1 antibody with two 15D3 heavy chains and two MRK16 light chains) (antibody, human IgG1, V domains shown)
VH: EVKVVESGGVLVRPGGSLKLSCAASGFTFSRYTMSWVRQTPEKRLEWVATISSGGGNTYYPDSVKGRFTVSRDNAMSSLYLQMSSLRSEDTALYYCARYGAGDAWFAYWGQGTLVTVSA
VL: DVLMTQTPVSLSVSLGDQASISCRSSQSIVHSTGNTYLEWYLQKPGQSPKLLIYKISNRFSGVPDRFSGSGSGTDFTLKISRVEAEDLGVYYCFQASHFPRTFGGGTKLEIK
notes: Human IgG1 / kappa constant regions; also called 15D3/MRK16 monoclonal; a15D3:MRK16 antibody

Bmax [3]: 2.94
Kd [3]: 0.17 nM
fold decrease in affinity against the un-swapped 5F9 control [11]: 100 fold
R4 (percent of red blood cells in the positive gate R4) [6]: 0.717%
binding result [6]: no binding
R4 (percent of red blood cells in the positive gate R4) (human CD47 on cells): 0.708%
B11: 5F9/MRK16 (anti-CD47 antibody with two 5F9 heavy chains and two MRK16 light chains) (antibody, human IgG1, V domains shown)
VH: QVQLVQSGAEVKKPGASVKVSCKASGYTFTNYNMHWVRQAPGQRLEWMGTIYPGNDDTSYNQKFKDRVTITADTSASTAYMELSSLRSEDTAVYYCARGGYRAMDYWGQGTLVTVSS
VL: DVLMTQTPVSLSVSLGDQASISCRSSQSIVHSTGNTYLEWYLQKPGQSPKLLIYKISNRFSGVPDRFSGSGSGTDFTLKISRVEAEDLGVYYCFQASHFPRTFGGGTKLEIK
notes: Human IgG1 / kappa constant regions; also called KT14/MRK16 monoclonal; KT14_MRK16

binding result [12]: no binding
B14: UIC2 DD HC::cetuximab KK HC::MRK16 LC (bispecific antibody, V domains shown)
VH 1: AVQLQQSGPELVKTGASVKISCKASGYSFSNYYIHWVKQSHGKSLEWIGFISCYNGATFYNQKFKGKATFTVDTSSSTAYMKFNSLTFEDSAVYYCARLPIQFGNFYPMDYWGQGTSVTVSS
VH 2: not shown
VL: DVLMTQTPVSLSVSLGDQASISCRSSQSIVHSTGNTYLEWYLQKPGQSPKLLIYKISNRFSGVPDRFSGSGSGTDFTLKISRVEAEDLGVYYCFQASHFPRTFGGGTKLEIK
notes: DD / KK charge pair substitutions in the IgG1 heavy chains; common light chain

— patent publication US20220204627A1 (WILLIAM ROBERT ARATHOON LIVING TRUST DATED AUGUST 29 2016, published 2022)
